Source: the supplement of paper PMC9170038

How the values were obtained:
MS2 coat protein [1] = test: apparent KD of MS2 coat protein, switch ON state; designed switch direction (-1 OFF switch, 1 ON switch): -1; higher = weaker reporter binding; conditions: FMN input: 0 or 200 uM; Eterna round: R93 (includes R88 designs)
Method in brief: (§1)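 On-chip transcription from Illumina sequencing clusters produced the designed RNA switches. These were titrated with SNAP-549-labelled MS2 coat protein (twofold steps, 0.7 or 1.5 nM to 3 µM) in 100 mM Tris-HCl pH 7.5, 80 mM KCl, 4 mM MgCl2, with or without constant ligand. The apparent KD given is the per-design median of normalised cluster binding-curve fits.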

MS2 coat protein [2] = test: apparent KD of MS2 coat protein, switch OFF state (with FMN for OFF switches, without FMN for ON switches); designed switch direction (-1 OFF switch, 1 ON switch): -1; higher = weaker reporter binding; conditions: FMN input: 0 or 200 uM; Eterna round: R93 (includes R88 designs)
Method in brief: as §1

MS2 coat protein [3] = test: apparent KD of MS2 coat protein; designed switch direction (-1 OFF switch, 1 ON switch): 1; higher = weaker reporter binding
Method in brief: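 Designed RNA switches with common flanks were made on Illumina chips by stalled E. coli RNA polymerase. Titration with SNAP-549-labelled MS2 coat protein doubled from 0.7 or 1.5 nM up to 3 µM. Apparent KD is each design's median over clusters after curve-fitting normalised fluorescence.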

[4] = input ligand: microRNA oligo, concentration not stated
[5] = Eterna round: R95, input ligand: microRNA oligo, concentration not stated

Sequence	apparent KD of MS2 coat protein (MS2 coat protein [1]) [nM]	apparent KD of MS2 coat protein (MS2 coat protein [2]) [nM]	other results
AAAAAAAAAGGAUAUACAGGAGGUAAGGUCGGACAAAAAAGACAUGAGGAUCACCCAUGUAGAAGGUUUAAAAA [Excls2-X]	39.4	35.1	
AAAAAACAAGGAUAUACAAAAAUAAAAAGAAUAAAGUGAAAACAUGAGGAUCACCCAUGUAGAAGGUGUAAAAA [Default title]	67	44.8	
AAAAAACAUGAGGAUCACCCAUGUAAGGAUAUGCUAAAAAACACGGAAAACGUGAAUAGCAGAAGGUACAAAAG [Mat - Exclusion 1 - Eli mod - D84]	15.9	67.7	
AAAAAACAUGAGGAUCACCCAUGUAAGGAUAUGCUCGUAAGUGCGAAAGCACAAAUGAGCAGAAGGUACAAAAA [66%, Wbt, 44]	19.2	31	
AAAAAACAUGAGGAUCACCCAUGUAAGGAUAUGCUCGUGCGAAAGCACAAAAAAAAGAGCAGAAGGUACAAAAA [66%, Wbt, 38]	19.8	32.3	
AAAAAACAUGAGGAUCACCCAUGUCAGGAUAUCCGGUUCAAAAAAAAAAAAAGGCGUUGGAGAAGGGACAUUCC [Chica Displaced 10 - Jieux - Exclusion 1]	28	36.4	
AAAAAACAUGAGGAUCACCCAUGUCAGGAUAUCGUUGAAAAAAAAAAAAAAAAAAAAGCGAGAAGGGACACGAA [exclusion1-cac3]	60.7	41.8	
AAAAAACAUGAGGAUCACCCAUGUCAGGAUAUCUGUAUUCAAUCCUCGGAUUGAAUACAGAGAAGGGAUAUGAA [Ex1: 604]	42.2	62.2	
AAAAAACAUGAGGAUCACCCAUGUGAGGAUAUCGAAAAAAAAAUAAAAAUAAAACAUACGAGAAGGCACACCAA [Amethyst 59]	30.5	35.7	
AAAAAACAUGAGGAUCACCCAUGUGAGGAUAUCGGUAGUGAGGCUAUAGUGUCAGUAAUGAGAAGGCACAUAAA [Brourd 613 Mod 11 - Jieux - Exclusion 1]	24.6	29.7	
AAAAAACAUGAGGAUCACCCAUGUGAGGAUAUGAACGAAAAUAAAUAAAAAUAAAAGUUCAGAAGGCACAAAAA [66%, Wbt, 10]	42.2	47.9	
AAAAAACAUGAGGAUCACCCAUGUGAGGAUAUGCGAAACAAAAAAAACAAAAACAAAAGCAGAAGGCACAAAAA [Amethyst 33]	25	25.7	
AAAAAACAUGAGGAUCACCCAUGUGAGGAUAUGUACGAAAAUAAAUAAAAAUAAAAGUACAGAAGGCACAAAAA [66%, Wbt, 2]	35.7	41.2	
AAAAAACAUGAGGAUCACCCAUGUGAGGAUAUGUACGAAAUAAAUAAAAAAUAAAAGUACAGAAGGCACAAAAA [Mat - Exclusion 1 - Eli mod - D5]	35.5	32.4	
AAAAAACAUGAGGAUCACCCAUGUUAGGAUAUGCUAUGGAAAAUAAAAAUAAAACAUAGCAGAAGGAACAAAAA [Denovo 2]	18.6	36.9	
AAAAAAGGAGGAUAUACGAACAUGUCGAAAGACGUGAAGGGACAUGAGGAUCACCCAUGUAGAAGGUCUAAAAA [Mat - Exclusion 2 - JL mod - D87]	30.7	29.9	
AAAAAAGGAGGAUAUACGAACAUGUCGAAAGACGUGAAGGGACAUGAGGAUCACCCAUGUAGAAGGUUUAAAAA [Mat - Exclusion 2 - JL mod - D85]	35.9	19.2	
AAAAAAGGAGGAUAUACGUACAUGUCGAAAGACGUGAAGGGACAUGAGGAUCACCCAUGUAGAAGGCUUAAAAA [Mat - Exclusion 2 - JL mod - D70]	37.2	22.9	
AAAAACCUAGGAUAUACAUGAGGAUCACCCAUGUAAAGAAACAACAAGGGAAACACACGUAGAAGGAGGAAGAA [JR_Exc003_Sub1204]	24.5	74.8	

Sequence	apparent KD of MS2 coat protein (MS2 coat protein [1]) [nM]	apparent KD of MS2 coat protein (MS2 coat protein [2]) [nM]	other results
AAAAAGAGAGGAUAUACAUGAGGAUCACCCAUGUGAAAGACGAAAAAAAGUCUAAAAAGUAGAAGGCUCAAAAA [65%, Moding Exclusion3-cac2, 12]	17.1	22.5	
AAAAAGCGAGGAUAUACAUGAGGAUCACCCAUGUAAAAAAAAAAAAAGGGAAAAAAAAGUAGAAGGCGCAAAAA [Sekhemraneferkhau Wepwawetemsaf]	43.2	48.7	
UUGCGGGCUUGAGGAUAUUGAGUACAUAUGUUUAACAUGAGGAUCACCCAUGUGGGUUGCGGUAUCGAGAAGGUAACUUACUAC [salish99_SSNG2_r04_807] (Eterna round: R96, puzzle: Same State NG 2)			apparent KD of MS2 coat protein (MS2 coat protein [3]; input ligand: FMN 200 uM): 110 nM; apparent KD of MS2 coat protein (MS2 coat protein [3]; [4]): 70.4 nM; apparent KD of MS2 coat protein (MS2 coat protein [3]; input ligand: none): 97.2 nM
UUGCGGGCUUGAGGAUAUUGAGUACAUAUGUUUAACAUGAGGAUCACCCAUGUGGGUUGCGGUAUCGAGAAGGUAGCUUCCUGC [salish99_SSNG2_r04_812] (Eterna round: R96, puzzle: Same State NG 2)			apparent KD of MS2 coat protein (MS2 coat protein [3]; input ligand: FMN 200 uM): 76.3 nM; apparent KD of MS2 coat protein (MS2 coat protein [3]; [4]): 83.6 nM; apparent KD of MS2 coat protein (MS2 coat protein [3]; input ligand: none): 79.1 nM
UUGCGGGCUUGAGGAUAUUGAGUACAUAUGUUUAACAUGAGGAUCACCCAUGUGGGUUGCGGUGUCGAGAAGGUGGCUUCCUGC [salish99_SSNG2_r04_814] (Eterna round: R96, puzzle: Same State NG 2)			apparent KD of MS2 coat protein (MS2 coat protein [3]; input ligand: FMN 200 uM): 99.2 nM; apparent KD of MS2 coat protein (MS2 coat protein [3]; [4]): 76.7 nM; apparent KD of MS2 coat protein (MS2 coat protein [3]; input ligand: none): 91.5 nM
UUGGUUGUCGUAGGAUAUGUAGGAUAUGCCUACAUGAGGAUCACCCAUGUUCGCAUGGCAGAAGGACAGAAGGACGAUGACCAU [pwkr ssNG2 2FMN + 1F5.19] (Eterna round: R96, puzzle: Same State NG 2)			apparent KD of MS2 coat protein (MS2 coat protein [3]; input ligand: FMN 200 uM): 13 nM; apparent KD of MS2 coat protein (MS2 coat protein [3]; [4]): 20.5 nM; apparent KD of MS2 coat protein (MS2 coat protein [3]; input ligand: none): 50.2 nM
UUGUGUUUGCGAGGAUAUCGUUUGUUGAAGUUACGAGAAGGCGCUCUCUUUACAUGAGGAUCACCCAUGUCUUUGAUGCAUGAU [JR_SSNG1_Sub072] (Eterna round: R96, puzzle: Same State NG 1)			apparent KD of MS2 coat protein (MS2 coat protein [3]; input ligand: FMN 200 uM): 81.1 nM; apparent KD of MS2 coat protein (MS2 coat protein [3]; [4]): 53.5 nM; apparent KD of MS2 coat protein (MS2 coat protein [3]; input ligand: none): 75.1 nM
UUGUUACAUGAGGAUCACCCAUGUUGUUGUAGAUAAGGAUAUAUAGGAACGAGAGAAAUAAUAGAAGGUAUUAGAC [JR_SS1_Sub059] (puzzle: Same State 1)			apparent KD of MS2 coat protein (MS2 coat protein [3]; [5]): 28.6 nM
UUGUUUGGUAAAAUACAUGAGGAUCACCCAUGUUAUGGUGCAGAGGAUAUGCAUGUUUGAUUGUAGCAGAAGGCUGUUUGUUGU [JR_SSNG3_Sub035] (Eterna round: R96, puzzle: Same State NG 3)			apparent KD of MS2 coat protein (MS2 coat protein [3]; input ligand: FMN 200 uM): 41.5 nM; apparent KD of MS2 coat protein (MS2 coat protein [3]; [4]): 29.7 nM; apparent KD of MS2 coat protein (MS2 coat protein [3]; input ligand: none): 42.5 nM
UUUAGUUGCGGGCAGGAUAUGUAUUAAAAUACAUGAGGAUCACCCAUGUGAGGCCGAAAAGGCCUACAGAAGGGCCAAUCGCGAC [Laonerce - 22] (puzzle: Same State 2)			apparent KD of MS2 coat protein (MS2 coat protein [3]; Eterna round: R95, input ligand: FMN 200 uM): 19.7 nM; apparent KD of MS2 coat protein (MS2 coat protein [3]; [5]): 49.4 nM; apparent KD of MS2 coat protein (MS2 coat protein [3]; Eterna round: R95, input ligand: none): 63 nM
UUUAUACAUGAGGAUCACCCAUGUCAACAAAGUCGAGGAUAUGGGCAUAUUAUCUUAUUUCCAGAAGGCGAAUUCU [salish99_ss1_r3_090] (Eterna round: R96, puzzle: Same State 1)			apparent KD of MS2 coat protein (MS2 coat protein [3]; input ligand: FMN 200 uM): 101 nM; apparent KD of MS2 coat protein (MS2 coat protein [3]; [4]): 305 nM; apparent KD of MS2 coat protein (MS2 coat protein [3]; input ligand: none): 378 nM
UUUAUACAUGAGGAUCACCCAUGUCAACAAAGUCGAGGAUAUGGGCAUAUUAUCUUAUUUCCAGAAGGCGAAUUCU [salish99_ss1_r3_090] (puzzle: Same State 1)			apparent KD of MS2 coat protein (MS2 coat protein [3]; [5]): 158 nM
UUUCCAUAGAUAGGAUAUCAGUUUACAUGAGGAUCACCCAUGUUCUCUUUGGUUAUAAUUAUAUCUGAGAAGGAUCUUGAUGAA [JR_SSNG2_Sub002] (Eterna round: R96, puzzle: Same State NG 2)			apparent KD of MS2 coat protein (MS2 coat protein [3]; [4]): 20.4 nM
UUUCGGUGGCUGGAGGAUAUCCUGGUUGUUACAUGAGGAUCACCCAUGUGCCGCGCGGUGCGCUGGGAGAAGGCCGGCGGCCCUU (puzzle: Same State 2)			apparent KD of MS2 coat protein (MS2 coat protein [3]; [5]): 25.2 nM
UUUGGGUGGCUGGAGGAUAUCCUGGUUGUUACAUGAGGAUCACCCAUGUGCCGCGCGGUUCGCGAGGAGAAGGCUGGCGGCCGUU (Eterna round: R96, puzzle: Same State 2)			apparent KD of MS2 coat protein (MS2 coat protein [3]; input ligand: FMN 200 uM): 42.4 nM; apparent KD of MS2 coat protein (MS2 coat protein [3]; [4]): 74.4 nM; apparent KD of MS2 coat protein (MS2 coat protein [3]; input ligand: none): 154 nM
UUUGGGUGGCUGGAGGAUAUCCUGGUUGUUACAUGAGGAUCACCCAUGUGCCGCGCGGUUCGCGAGGAGAAGGCUGGCGGCCGUU (puzzle: Same State 2)			apparent KD of MS2 coat protein (MS2 coat protein [3]; [5]): 91.2 nM
UUUGGGUGGCUGGAGGAUAUUCGAGUGGUUACAUGAGGAUCACCCAUGUGUCGCGCGGUACGCGAGGAGAAGGCUGGCGGCCGUU (puzzle: Same State 2)			apparent KD of MS2 coat protein (MS2 coat protein [3]; [5]): 53.4 nM
UUUUUGAUCCGAGGAUAUCCUUUUUUCUUACAUGAGGAUCACCCAUGUAAAGGGAUUGAGUUGUAGGAGAAGGCGGUUUUUUUU [JR_SSNG2_Sub060] (Eterna round: R96, puzzle: Same State NG 2)			apparent KD of MS2 coat protein (MS2 coat protein [3]; input ligand: FMN 200 uM): 17.5 nM; apparent KD of MS2 coat protein (MS2 coat protein [3]; [4]): 32.4 nM; apparent KD of MS2 coat protein (MS2 coat protein [3]; input ligand: none): 32.3 nM
